What was measured:
[1] = biological target: human PD-L1 on cell surface (human) (UniProt Q9NZQ7); test: flow cytometry on CHO cells expressing human PD-L1, fitted curve, negative control
[2] = biological target: monkey PD-L1 on cell surface (monkey); test: flow cytometry on CHO cells expressing monkey PD-L1, fitted curve, negative control
[3] = biological target: biotin-labeled PD-L1-Fc (human) (UniProt Q9NZQ7); test: ELISA: biotin-PD-L1-Fc binding to coated human PD-1 with titrated antibody; negative control
biotin-labeled PD-L1-Fc (human), sequence (Q9NZQ7 19-238 limits assumed): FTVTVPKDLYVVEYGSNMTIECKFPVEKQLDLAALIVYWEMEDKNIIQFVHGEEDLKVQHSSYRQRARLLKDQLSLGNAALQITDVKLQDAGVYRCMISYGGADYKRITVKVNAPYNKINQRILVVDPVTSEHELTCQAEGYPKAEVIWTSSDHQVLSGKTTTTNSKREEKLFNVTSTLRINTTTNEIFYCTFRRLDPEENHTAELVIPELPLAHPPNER

[4] = biological target: biotin-labeled PD-L1-Fc (human) (UniProt Q9NZQ7); test: ELISA: biotin-PD-L1-Fc binding to coated human PD-1 with titrated antibody, OD 450 nm, fitted curve; negative control
[5] = biological target: biotin-labeled PD-L1-Fc (human) (UniProt Q9NZQ7); test: flow cytometry: biotin-PD-L1-Fc binding to CHO cells expressing human PD-1 with titrated antibody, fitted curve; negative control

human PD-L1 on cell surface (human), sequence (Q9NZQ7 19-290): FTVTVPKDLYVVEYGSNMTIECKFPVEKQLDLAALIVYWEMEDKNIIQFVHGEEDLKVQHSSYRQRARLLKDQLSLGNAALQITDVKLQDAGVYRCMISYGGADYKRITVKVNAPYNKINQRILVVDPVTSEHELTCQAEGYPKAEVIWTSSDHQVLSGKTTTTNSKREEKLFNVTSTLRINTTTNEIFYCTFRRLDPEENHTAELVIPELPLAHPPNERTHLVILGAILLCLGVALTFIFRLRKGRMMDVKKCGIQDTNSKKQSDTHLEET

Bottom [1]: 166
EC50 [1]: 0.015 nM
LogEC50 [1]: -1.82
Span [1]: 24.7
Top [1]: 191
Bottom [2]: 216
EC50 [2]: 19.3 nM
LogEC50 [2]: 1.29
Span [2]: 32
Top [2]: 248
EC50 [3]: 2.88 µg/mL
Bottom [4]: 1.75
LogEC50 [4]: 3.46
Span [4]: 0.186
Top [4]: 1.94
Bottom [5]: 5880
LogEC50 [5]: -17.5
Span [5]: 1.15e+06
Top [5]: 1.16e+06
Substance: negative control antibody human IgG
